# Literature values in patent US11097005B2, “Use of cadherin-11 antagonists to treat metabolic disorders and/or increase insulin sensitivity” (The Brigham and Women's Hospital, Inc., priority 2014, dated 2021).
# B1: IL-33: cytokine, ST2 ligand; administration to ob/ob mice cited from literature (protein, UniProt Q8BVZ5 1-266, looked up)
# Interleukin-33: MRPRMKYSNSKISPAKFSSTAGEALVPPCKIRRSQQKTKEFCHVYCMRLRSGLTIRKETSYFRKEPTKRYSLKSGTKHEENFSAYPRDSRKRSLLGSIQAFAASVDTLSIQGTSLLTQSPASLSTYNDQSVSFVLENGCYVINVDDSGKDQEQDQVLLRYYESPCPASQSGDGVDGKKLMVNMSPIKDTDIWLHANDKDYSVELQRGDVSPPEQAFFVLHKKSSDFVSFECKNLPGTYIGVKDNQLALVEEKDESCNNIMFKLSKI
# Conditions: ob/ob mice; IL-33 administration
molecule,measurement,value
B1,accumulation of M2-macrophages in adipose tissue,improve
same,glucose tolerance,improve
